Laboratory results reported in the supplement of paper PMC9112550, “Optimization of the antimicrobial peptide Bac7 by deep mutational scanning” (BMC Biology, 2022).

Tested on: Escherichia coli TOP10
Experiment: shrunken log2 fold change of peptide-encoding DNA abundance (4.5 h post-induction vs induction); higher = less antimicrobial activity (less host growth inhibition)
Details: time post-induction: 4.5 h; library: site-saturation at positions 5, 18, 19, 20
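Also: peptides expressed intracellularly from a pBAD plasmid library in pooled LB shake-flask culture, induced with 0.3% L-arabinose, DNA abundance read by NGS, three biological replicates, DESeq2 with apeglm shrinkage.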

Row | Sequence | shrunken log2 fold change
1 | RRIRNRPPRLPRPRPRPGKNPRP | 0.0906
2 | RRIRARPPRLPRPRPRPDYWPRP | 0.139
3 | RRIRHRPPRLPRPRPRPMRAPRP | 0.686
4 | RRIRPRPPRLPRPRPRPWGDPRP | -0.0121
5 | RRIRCRPPRLPRPRPRPFDLPRP | -0.0696
6 | RRIRGRPPRLPRPRPRPKMEPRP | 0.582
7 | RRIRLRPPRLPRPRPRPIANPRP | -0.00904
8 | RRIRMRPPRLPRPRPRPEMKPRP | 2.5
9 | RRIRDRPPRLPRPRPRPQLGPRP | 0.0197
10 | RRIRERPPRLPRPRPRPLQNPRP | -0.116
11 | RRIRKRPPRLPRPRPRPYAEPRP | -0.0528
12 | RRIRYRPPRLPRPRPRPIFWPRP | 0.0187
13 | RRIRTRPPRLPRPRPRPDMPPRP | -0.064
14 | RRIRKRPPRLPRPRPRPGWMPRP | 0.269
15 | RRIRLRPPRLPRPRPRPIPPPRP | 0.0351
16 | RRIRSRPPRLPRPRPRPRCFPRP | 0.165
17 | RRIRWRPPRLPRPRPRPCKLPRP | -0.694
18 | RRIRWRPPRLPRPRPRPIMYPRP | -0.0994
19 | RRIRARPPRLPRPRPRPAFCPRP | 0.645
20 | RRIRWRPPRLPRPRPRPIIQPRP | -0.151
21 | RRIRRRPPRLPRPRPRPPKDPRP | 0.472
22 | RRIRHRPPRLPRPRPRPMRPPRP | 0.36
23 | RRIRHRPPRLPRPRPRPTCYPRP | -0.272
24 | RRIRWRPPRLPRPRPRPHPSPRP | 0.452
25 | RRIRCRPPRLPRPRPRPNQKPRP | 0.184

Row | Sequence | shrunken log2 fold change
26 | RRIRGRPPRLPRPRPRPCTHPRP | -0.0414
27 | RRIRFRPPRLPRPRPRPVEQPRP | -0.0448
28 | RRIRYRPPRLPRPRPRPVPKPRP | 0.0938
29 | RRIRPRPPRLPRPRPRPYTFPRP | -0.504
30 | RRIRSRPPRLPRPRPRPRYKPRP | -0.154
31 | RRIRWRPPRLPRPRPRPSMTPRP | 0.178
32 | RRIRYRPPRLPRPRPRPFQIPRP | -0.0359
33 | RRIRDRPPRLPRPRPRPGGFPRP | 0.134
34 | RRIRDRPPRLPRPRPRPGHLPRP | -0.000122
35 | RRIRDRPPRLPRPRPRPENYPRP | 0.0528
36 | RRIRLRPPRLPRPRPRPCWVPRP | -0.00196
37 | RRIRIRPPRLPRPRPRPSVCPRP | -0.294
38 | RRIRGRPPRLPRPRPRPHYNPRP | -0.265
39 | RRIRSRPPRLPRPRPRPRKQPRP | 0.248
40 | RRIRARPPRLPRPRPRPSILPRP | -0.156
41 | RRIRDRPPRLPRPRPRPRIFPRP | -0.0459
42 | RRIRSRPPRLPRPRPRPIAQPRP | -0.0267
43 | RRIRMRPPRLPRPRPRPNFTPRP | -0.099
44 | RRIRGRPPRLPRPRPRPEVIPRP | 0.073
45 | RRIRCRPPRLPRPRPRPGVTPRP | -0.175
46 | RRIRKRPPRLPRPRPRPTCLPRP | 0.0518
47 | RRIRNRPPRLPRPRPRPRIRPRP | -0.0657
48 | RRIRVRPPRLPRPRPRPPTWPRP | 0.0832
49 | RRIRIRPPRLPRPRPRPYDFPRP | 0.126
50 | RRIRFRPPRLPRPRPRPATTPRP | -0.0275

Row | Sequence | shrunken log2 fold change
51 | RRIRARPPRLPRPRPRPHSTPRP | 0.0355
52 | RRIRWRPPRLPRPRPRPKEYPRP | 0.02
53 | RRIRRRPPRLPRPRPRPPPMPRP | 0.959
54 | RRIRCRPPRLPRPRPRPMNEPRP | -0.307
55 | RRIRGRPPRLPRPRPRPCENPRP | 0.136
56 | RRIRGRPPRLPRPRPRPVRHPRP | 0.496
57 | RRIRYRPPRLPRPRPRPHYCPRP | -0.403
58 | RRIRQRPPRLPRPRPRPLALPRP | 0.318
59 | RRIRWRPPRLPRPRPRPYDAPRP | -0.189
60 | RRIRSRPPRLPRPRPRPTVLPRP | 0.0356
61 | RRIRHRPPRLPRPRPRPPNYPRP | -0.0558
62 | RRIRSRPPRLPRPRPRPAFDPRP | 1.02
63 | RRIRHRPPRLPRPRPRPVYIPRP | -0.0204
64 | RRIRRRPPRLPRPRPRPRTPPRP | 0.616
65 | RRIRERPPRLPRPRPRPVQNPRP | -0.0413
66 | RRIRCRPPRLPRPRPRPTVKPRP | -0.286
67 | RRIRSRPPRLPRPRPRPVPLPRP | -0.0843
68 | RRIRARPPRLPRPRPRPCYEPRP | -0.109
69 | RRIRCRPPRLPRPRPRPKCKPRP | 0.0809
70 | RRIRDRPPRLPRPRPRPVTEPRP | 0.0911
71 | RRIRQRPPRLPRPRPRPDFIPRP | -0.345
72 | RRIRIRPPRLPRPRPRPNCVPRP | -0.376
73 | RRIRARPPRLPRPRPRPARIPRP | 0.169
74 | RRIRYRPPRLPRPRPRPNMCPRP | 0.00841
75 | RRIRVRPPRLPRPRPRPWQFPRP | -0.0175

Row | Sequence | shrunken log2 fold change
76 | RRIRCRPPRLPRPRPRPMIYPRP | -0.144
77 | RRIRGRPPRLPRPRPRPKYPPRP | 0.0365
78 | RRIRVRPPRLPRPRPRPQDMPRP | -0.736
79 | RRIRRRPPRLPRPRPRPVTAPRP | 0.452
80 | RRIRSRPPRLPRPRPRPRAKPRP | 0.244
81 | RRIRARPPRLPRPRPRPMENPRP | 0.423
82 | RRIRHRPPRLPRPRPRPKVWPRP | 0.331
83 | RRIRWRPPRLPRPRPRPIKLPRP | -0.216
84 | RRIRKRPPRLPRPRPRPPPTPRP | 1.11
85 | RRIRWRPPRLPRPRPRPAQCPRP | -0.00191
86 | RRIRWRPPRLPRPRPRPAFTPRP | 0.0598
87 | RRIRLRPPRLPRPRPRPKAVPRP | -0.0189
88 | RRIRFRPPRLPRPRPRPAYFPRP | -0.108
89 | RRIRNRPPRLPRPRPRPNVCPRP | 0.00455
90 | RRIRDRPPRLPRPRPRPTSSPRP | 0.058
91 | RRIRERPPRLPRPRPRPTPEPRP | 0.122
92 | RRIRVRPPRLPRPRPRPKIPPRP | 0.0285
93 | RRIRCRPPRLPRPRPRPSMQPRP | -0.328
94 | RRIRDRPPRLPRPRPRPARAPRP | 0.928
95 | RRIRMRPPRLPRPRPRPKDVPRP | -0.000921
96 | RRIRRRPPRLPRPRPRPQGYPRP | -0.0842
97 | RRIRNRPPRLPRPRPRPAPEPRP | 0.948
98 | RRIRERPPRLPRPRPRPQYDPRP | -0.418
99 | RRIRNRPPRLPRPRPRPCVEPRP | -0.209
100 | RRIRYRPPRLPRPRPRPWANPRP | -0.176

Row | Sequence | shrunken log2 fold change
101 | RRIRTRPPRLPRPRPRPRYKPRP | -0.909
102 | RRIRDRPPRLPRPRPRPEWHPRP | 0.623
103 | RRIRERPPRLPRPRPRPMMFPRP | -0.0555
104 | RRIRTRPPRLPRPRPRPQVGPRP | -0.137
105 | RRIRARPPRLPRPRPRPSCWPRP | 0.628
106 | RRIRKRPPRLPRPRPRPMHKPRP | 0.351
107 | RRIRIRPPRLPRPRPRPNDPPRP | -0.19
108 | RRIRDRPPRLPRPRPRPTHPPRP | 0.263
109 | RRIRQRPPRLPRPRPRPNTVPRP | -0.369
110 | RRIRDRPPRLPRPRPRPTDYPRP | -0.0921
111 | RRIRHRPPRLPRPRPRPADFPRP | 0.116
112 | RRIRWRPPRLPRPRPRPQTMPRP | -0.00112
113 | RRIRNRPPRLPRPRPRPKHDPRP | -0.287
114 | RRIRIRPPRLPRPRPRPDHCPRP | -0.0229
115 | RRIRQRPPRLPRPRPRPCRLPRP | -0.15
116 | RRIRFRPPRLPRPRPRPLTCPRP | -0.182
117 | RRIRLRPPRLPRPRPRPPKWPRP | 0.532
118 | RRIRHRPPRLPRPRPRPRGGPRP | 0.504
119 | RRIRFRPPRLPRPRPRPCQPPRP | -0.134
120 | RRIRDRPPRLPRPRPRPCPCPRP | -0.478
121 | RRIRPRPPRLPRPRPRPYQRPRP | 0.0369
122 | RRIRPRPPRLPRPRPRPVYDPRP | -0.711
123 | RRIRFRPPRLPRPRPRPLYWPRP | -0.319
124 | RRIRARPPRLPRPRPRPNNNPRP | -0.471
125 | RRIRGRPPRLPRPRPRPNTSPRP | 0.172
